Experimental data reported in US20120023600A1 (Novartis, published 2012).

T1: recombinant human DKK1 (human, UniProt O94907 32-266)
T1 construct: also called Dickkopf-1; rhDKK1
T1 sequence: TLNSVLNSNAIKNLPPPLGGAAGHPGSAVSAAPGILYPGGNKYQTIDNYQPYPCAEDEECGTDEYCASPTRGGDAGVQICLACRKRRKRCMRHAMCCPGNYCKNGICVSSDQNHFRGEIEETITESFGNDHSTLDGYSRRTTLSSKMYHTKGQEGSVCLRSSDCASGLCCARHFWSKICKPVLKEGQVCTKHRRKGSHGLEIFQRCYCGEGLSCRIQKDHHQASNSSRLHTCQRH

T2: mouse DKK1 (R&D Systems) (mouse, UniProt O54908 32-272)
T2 construct: Bought protein
T2 sequence (looked up): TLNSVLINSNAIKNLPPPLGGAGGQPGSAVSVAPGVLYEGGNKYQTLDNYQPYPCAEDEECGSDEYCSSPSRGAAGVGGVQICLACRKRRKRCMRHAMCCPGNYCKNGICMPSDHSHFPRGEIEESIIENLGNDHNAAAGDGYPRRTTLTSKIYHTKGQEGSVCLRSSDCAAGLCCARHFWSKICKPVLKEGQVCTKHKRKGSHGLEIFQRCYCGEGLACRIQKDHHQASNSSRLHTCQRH

T3: cynomolgus DKK1 (cynomolgus monkey (Macaca fascicularis), UniProt A0A7N9IE82 32-266)
T3 construct: also called cyno DKK1; monkey DKK1 (Novartis)
T3 sequence: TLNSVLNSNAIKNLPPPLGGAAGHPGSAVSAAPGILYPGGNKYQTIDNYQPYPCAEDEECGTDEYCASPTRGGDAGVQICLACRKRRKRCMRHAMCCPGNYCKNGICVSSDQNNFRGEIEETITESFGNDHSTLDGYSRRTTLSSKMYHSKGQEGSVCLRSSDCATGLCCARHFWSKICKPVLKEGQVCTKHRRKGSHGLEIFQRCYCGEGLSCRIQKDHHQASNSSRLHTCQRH

T4: DKK1-APP (human, UniProt O94907 32-266)
T4 sequence: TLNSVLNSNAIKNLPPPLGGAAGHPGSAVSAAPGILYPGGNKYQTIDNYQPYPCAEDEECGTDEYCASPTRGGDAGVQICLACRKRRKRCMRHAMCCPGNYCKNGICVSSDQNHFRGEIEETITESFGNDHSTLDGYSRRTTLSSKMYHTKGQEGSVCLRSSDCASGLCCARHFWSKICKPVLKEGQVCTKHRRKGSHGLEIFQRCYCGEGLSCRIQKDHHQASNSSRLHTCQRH

T5: biotinylated human DKK1 (human, UniProt O94907 32-266, biotinylated (sites not given))
T5 construct: also called biotinylated DKK1; human recombinant, biotinylated DKK1
T5 sequence: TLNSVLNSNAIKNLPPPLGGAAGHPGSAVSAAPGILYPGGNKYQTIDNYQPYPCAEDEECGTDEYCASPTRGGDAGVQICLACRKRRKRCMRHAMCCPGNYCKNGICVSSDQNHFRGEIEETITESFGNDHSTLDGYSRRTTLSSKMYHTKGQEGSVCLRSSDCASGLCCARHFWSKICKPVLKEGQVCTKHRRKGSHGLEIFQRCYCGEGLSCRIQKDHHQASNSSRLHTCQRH


Columns and labels:
recombinant human DKK1 [1] = target: T1, recombinant human DKK1; assay: SPR (Biacore), DKK1 immobilised on CM5 chip, Fab as analyte
Description: (§1) Using these clones, kinetic SPR analysis is performed on a. […] The Fab preparations are applied in concentration series of 16-500 nM at a flow rate of 20 μl/min. Association phase is set to 60 s and dissociation phase to 120 s.

mouse DKK1 (R&D Systems) [2] = target: T2, mouse DKK1 (R&D Systems); assay: as above
Description: as §1

cynomolgus DKK1 [3] = target: T3, cynomolgus DKK1; assay: as above
Description: as §1

recombinant human DKK1 [4] = target: T1, recombinant human DKK1; assay: as above; remark: listed apart in the source
Description: as §1

mouse DKK1 (R&D Systems) [5] = target: T2, mouse DKK1 (R&D Systems); assay: as above; remark: listed apart in the source
Description: as §1

cynomolgus DKK1 [6] = target: T3, cynomolgus DKK1; assay: as above; remark: listed apart in the source
Description: as §1

DKK1-APP [7] = target: T4, DKK1-APP; assay: cell-based or functional assay
DKK1-APP [8] = target: T4, DKK1-APP; assay: cell-based or functional assay; remark: listed apart in the source
recombinant human DKK1 [9] = target: T1, recombinant human DKK1; assay: SPR (Biacore), DKK1 immobilised on CM5 chip, Fab as analyte; remark: listed apart in the source
Description: as §1

mouse DKK1 (R&D Systems) [10] = target: T2, mouse DKK1 (R&D Systems); assay: as above; remark: listed apart in the source
Description: as §1

cynomolgus DKK1 [11] = target: T3, cynomolgus DKK1; assay: as above; remark: listed apart in the source
Description: as §1

biotinylated human DKK1 = target: T5, biotinylated human DKK1; assay: ELISA, biotinylated DKK1 on Neutravidin plates, Fab 1 ug/ml, anti-FLAG-AP detection; single measurement
Description: Binding specificity of the matured Fabs in the presence of 50% human serum (HS) is determined. […] After coating of the antigen, wells are blocked with TBS/0.05% Tween (TBS-T) supplemented with 1% BSA for 1 h at room temperature. Purified Fabs described above are diluted either in TBS/4% BSA or TBS/50% HS at a final concentration of 1 μg/ml, added to the coated and blocked wells and the plates are incubated for 1 h at room temperature. For detection, an anti-FLAG alkaline phosphatase (AP)-conjugated antibody (1:5000 dilution in TBST) and the fluorogenic substrate AttoPhos (Roche) are used. After each incubation, the wells of the microtiter plates are washed with TBST five times, except after the final incubation step with the labeled secondary antibody when wells are washed three times.
The fluorescence is measured in a TECAN Spectrafluor plate reader.

recombinant human DKK1 [12] = target: T1, recombinant human DKK1; assay: solution equilibrium titration (SET), ECL (BioVeris), Fab
Description: (§2) Electrochemiluminescence (ECL) based affinity determination in solution and data evaluation are basically performed as described by Haenel et al., 2005. […] Subsequently, the concentration of unbound Fab is quantified by ECL detection using the M-SERIES® 384 analyzer (BioVeris Europe).
(§3) Affinities are calculated according to Haenel et al., 2005 Anal Biochem 339.1:182-184.

mouse DKK1 (R&D Systems) [13] = target: T2, mouse DKK1 (R&D Systems); assay: as above
Description: as §2, §3

cynomolgus DKK1 [14] = target: T3, cynomolgus DKK1; assay: as above
Description: as §2, §3

recombinant human DKK1 [15] = target: T1, recombinant human DKK1; assay: cell-based or functional assay
DKK1-APP [16] = target: T4, DKK1-APP; assay: cell-based or functional assay; remark: listed apart in the source

| Binder | Kd (recombinant human DKK1 [1]) [nM] | Kd (mouse DKK1 (R&D Systems) [2]) [nM] | Kd (cynomolgus DKK1 [3]) [nM] | Kd (recombinant human DKK1 [4]) [nM] | Kd (mouse DKK1 (R&D Systems) [5]) [nM] | Kd (cynomolgus DKK1 [6]) [nM] | Luciferase reporter assay; EC50 (DKK1-APP [7]) [nM] | EC50 (DKK1-APP [8]) [nM] | Kd (recombinant human DKK1 [9]) [nM] | Kd (mouse DKK1 (R&D Systems) [10]) [nM] | Kd (cynomolgus DKK1 [11]) [nM] | Binding activity w/50% Human serum vs 4% BSA (%) (biotinylated human DKK1) | Kd (recombinant human DKK1 [12]) [nM] | Kd (mouse DKK1 (R&D Systems) [13]) [nM] | Kd (cynomolgus DKK1 [14]) [nM] | TCF/LEF luc assay w/Kremen: EC50 (recombinant human DKK1 [15]) [nM] | Luciferase reporter assay w/o Kremen; Activity in 15% Human serum (%) (DKK1-APP [16]) |
| --- | --- | --- | --- | --- | --- | --- | --- | --- | --- | --- | --- | --- | --- | --- | --- | --- | --- |
| MOR04516 (Fab, V domains shown, Fab with C-terminal FLAG and 6xHis tags; also called MOR4516) VH: QVQLVQSGAEVKKPGESLKISCKGSGYSFTNYYIGWVRQMPGKGLEWMGIIYPTDSYTNYSPSFQGQVTISADKSISTAYLQWSSLKASDTAMYYCARGIPFRMRGFDYWGQGTLVTVSS VL: DIVLTQPPSVSGAPGQRVTISCSGSSSNIGSSFVNWYQQLPGTAPKLLIGNNSNRPSGVPDRFSGSKSGTSASLAITGLQSEDEADYYCASFDMGSPNVVFGGGTKLTVLG | 2.6 | 2.4 | 1.9 | 2.6 | 2.4 | 1.9 | 42 | 42 | 2.6 | 2.4 | 1.9 | – | – | – | – | – | – |
| MOR04456 (Fab, V domains shown, Fab with C-terminal FLAG and 6xHis tags) VH: QVQLVESGGGLVQPGGSLRLSCAASGFTFNNYGMTWVRQAPGKGLEWVSGISGSGSYTYYADSVKGRFTISRDNSKNTLYLQMNSLRAEDTAVYYCARTIYMDYWGQGTLVTVSS VL: DIVLTQSPATLSLSPGERATLSCRASQNLFSPYLAWYQQKPGQAPRLLIYGASNRATGVPARFSGSGSGTDFTLTISSLEPEDFATYYCQQYGDEPITFGQGTKVEIKR | 7.9 | 11.6 | 8.1 | 7.9 | 11.6 | 8.1 | 95 | 95 | 7.9 | 11.6 | 8.1 | – | – | – | – | – | – |
| MOR04907 (Fab, V domains shown) VH: QVQLVESGGGLVQPGGSLRLSCAASGFTFNNYGMTWVRQAPGKGLEWVSGISGSGSYTYYADSVKGRFTISRDNSKNTLYLQMNSLRAEDTAVYYCARTIYMDYWGQGTLVTVSS VL: DIVLTQSPATLSLSPGERATLSCRASQNLFSPYLAWYQQKPGQAPRLLIYGASNRATGVPARFSGSGSGTDFTLTISSLEPEDFAVYYCQQYLSLPTTFGQGTKVEIKR | – | – | – | – | – | – | – | – | – | – | – | > 83 | 0.114 | 0.167 | 0.17 | 0.9 | 54 |
| MOR04914 (Fab, V domains shown) VH: QVQLVESGGGLVQPGGSLRLSCAASGFTFSSYWMSWVRQAPGKGLEWVSVISSDSSSTYYADSVKGRFTISRDNSKNTLYLQMNSLRAEDTAVYYCARHGIDFDHWGQGTLVTVSS VL: DIALTQPASVSGSPGQSITISCTGTSSDLGGYNYVSWYQQHPGKAPKLMIYDVNNRPSGVSNRFSGSKSGNTASLTISGLQAEDEADYYCQSYTYTPISPVFGGGTKLTVLG | – | – | – | – | – | – | – | – | – | – | – | 83 | 0.094 | 0.2 | 0.14 | 1.1 | 80 |
| MOR04461 (Fab, V domains shown, Fab with C-terminal FLAG and 6xHis tags) VH: QVQLVESGGGLVQPGGSLRLSCAASGFTFSSYWMSWVRQAPGKGLEWVSGISYSGSNTHYADSVKGRFTISRDNSKNTLYLQMNSLRAEDTAVYYCARMGIDLDYWGQGTLVTVSS VL: DIALTQPASVSGSPGQSITISCTGTSSDVGGFNYVSWYQQHPGKAPKLMIHDGSNRPSGVSNRFSGSKSGNTASLTISGLQAEDEADYYCSTWDMTVDFVFGGGTKLTVLG | 7.6 | 12.8 | 7.3 | 7.6 | 12.8 | 7.3 | 57 | 57 | 7.6 | 12.8 | 7.3 | – | – | – | – | – | – |
| MOR04921 (Fab, V domains shown) VH: QVQLVESGGGLVQPGGSLRLSCAASGFTFSSYWMSWVRQAPGKGLEWVSGISYSGSNTHYADSVKGRFTISRDNSKNTLYLQMNSLRAEDTAVYYCARMGIDLDYWGQGTLVTVSS VL: DIALTQPASVSGSPGQSITISCTGTSSDVGGFNYVSWYQQHPGKAPKLMIHDGSNRPSGVSNRFSGSKSGNTASLTISGLQAEDEADYYCQTWATSPLSSVFGGGTKLTVLG | – | – | – | – | – | – | – | – | – | – | – | 93 | – | – | – | 0.7 | 26 |
| MOR04454 (Fab, V domains shown, Fab with C-terminal FLAG and 6xHis tags) VH: QVQLVESGGGLVQPGGSLRLSCAASGFTFSNYGLHWVRQAPGKGLEWVSSISYYGSSTYYADSVKGRFTISRDNSKNTLYLQMNSLRAEDTAVYYCARDGSHMDKPPGYVFAFWGQGTLVTVSS VL: DIQMTQSPSSLSASVGDRVTITCRASQGIKNYLNWYQQKPGKAPKLLIGAASSLQSGVPSRFSGSGSGTDFTLTISSLQPEDFATYYCLQYYGMPPTFGQGTKVEIKR | 3.2 | 6 | 2.7 | 3.2 | 6 | 2.7 | 83 | 83 | 3.2 | 6 | 2.7 | – | – | – | – | – | – |
